B1: CPEB3 Ribozyme (parent)
chain: GGGGGCCACAGCAGAAGCGUUCACGUCGCGGCCCCUGUCAGAUUCUGGUGAAUCUGCGAAUUCUGCUGU

Variants of: B1
Assay: self-cleavage, relative activity (ratio to wild type); higher = more cleavage; co-transcriptional

Going from U44A G65A to U44A G65U, the self-cleavage falls from 0.755 to 0.588.

First: U44A G65C
Second: C45A G50A
The self-cleavage of the first is lower: 0.422 for the first, 1.02 for the second.

First: U44A C54G
Second: U44A C54A
The self-cleavage of the first is lower: 0.461 for the first, 0.588 for the second.

Going from U44G G58U to U44G G58A, the self-cleavage falls from 0.959 to 0.922.

First: U44G G58C
Second: U44C U69A
The self-cleavage of the first is higher: 0.944 for the first, 0.927 for the second.

Going from U44C U69C to U44C U69G, the self-cleavage falls from 1.07 to 1.02.

Going from C45A U62A to C45A U62G, the self-cleavage falls from 0.846 to 0.832.

Going from C45A U62C to U44A U62C, the self-cleavage falls from 0.85 to 0.774.

Compared with U44A U62G, U44G is higher in self-cleavage: 0.685 for the first, 0.985 for the second.

Compared with U44A, U44C is lower in self-cleavage: 0.983 for the first, 0.957 for the second.

First: U44G G48C
Second: U44A G56C
The self-cleavage of the first is higher: 0.965 for the first, 0.383 for the second.

First: U44A G56A
Second: C45G U61G
The self-cleavage of the first is higher: 0.849 for the first, 0.731 for the second.

First: C45G U61A
Second: C45G U61C
The self-cleavage of the first is higher: 0.922 for the first, 0.757 for the second.

First: U44G G56U
Second: U44C U61C
The self-cleavage of the first is higher: 0.666 for the first, 0.317 for the second.

First: U43G U61C
Second: U44C U49A
The self-cleavage of the first is lower: 0.332 for the first, 0.931 for the second.

First: U44C U49G
Second: U44C U49C
The self-cleavage of the first is higher: 0.959 for the first, 0.83 for the second.

Going from U44G A60U to U44G A60G, the self-cleavage rises from 0.382 to 0.819.

Compared with U44G A60C, U44C A52U is higher in self-cleavage: 0.368 for the first, 1 for the second.

First: U44C A52G
Second: U44C A52C
The self-cleavage of the first is higher: 1.01 for the first, 0.95 for the second.

First: C45G U46G
Second: C45G U46C
The self-cleavage of the first is lower: 0.966 for the first, 0.999 for the second.

First: C45G U46A
Second: C45G U62G
The self-cleavage of the first is lower: 0.631 for the first, 0.81 for the second.

First: C45G U62C
Second: C45U C63A
The self-cleavage of the first is lower: 0.798 for the first, 0.838 for the second.

Compared with C45G U69A, C45G U69C is higher in self-cleavage: 1.01 for the first, 1.05 for the second.

Compared with U43G A60U, U43G A60C is higher in self-cleavage: 0.419 for the first, 0.498 for the second.

Compared with U43G A60G, U44C G50U is higher in self-cleavage: 0.556 for the first, 0.93 for the second.

Compared with U44C G50C, U43G G58C is higher in self-cleavage: 0.948 for the first, 0.959 for the second.

First: U43G G58U
Second: U44G U49G
The self-cleavage of the first is higher: 0.946 for the first, 0.927 for the second.

First: U44G A51U
Second: U44G A51C
The self-cleavage of the first is lower: 0.941 for the first, 0.966 for the second.

First: U44G A51G
Second: C45G G47A
The self-cleavage of the first is lower: 0.671 for the first, 1.03 for the second.

Compared with U44A A51U, C45A G68A is higher in self-cleavage: 0.998 for the first, 1.02 for the second.

Compared with C45A G68U, C45A G68C is lower in self-cleavage: 0.998 for the first, 0.965 for the second.

First: U44G U46C
Second: U44G U46G
The self-cleavage of the first is higher: 0.928 for the first, 0.909 for the second.

Compared with U44G U46A, U44C G47A is higher in self-cleavage: 0.978 for the first, 0.979 for the second.

Going from U44C G47U to U44A U67C, the self-cleavage falls from 1.01 to 0.973.

First: U44A U67A
Second: U44A U67G
The self-cleavage of the first is lower: 0.936 for the first, 0.984 for the second.

First: U44A G50U
Second: U44A G50C
The self-cleavage of the first is lower: 0.984 for the first, 1 for the second.

First: C45G C57G
Second: C45G C57U
The self-cleavage of the first is lower: 0.328 for the first, 0.366 for the second.

Compared with C45G C57A, U44A C66G is higher in self-cleavage: 0.318 for the first, 0.658 for the second.

Compared with U44A C66U, U44C U53A is lower in self-cleavage: 0.926 for the first, 0.895 for the second.

Going from U44C U53G to U44C U53C, the self-cleavage falls from 0.747 to 0.647.

First: C45A A59C
Second: C45A A59U
The self-cleavage of the first is lower: 0.613 for the first, 0.793 for the second.

First: U44G A59G
Second: U44G A59U
The self-cleavage of the first is higher: 0.951 for the first, 0.612 for the second.

— the RNAGym collection of RNA variant scans (doi:10.7554/elife.80360)
